PMC12344411, “Cytosolic- and membrane-localized oxidized indole-3-acetic acid formation regulates developmental auxin transients” (Plant physiology, 2025)
Blank lines part the entries; values can stand above or below the molecule they belong to.

Tests used:
TIR1 = biological target: T1, TIR1 (Arabidopsis thaliana, UniProt Q570C0); test: synthetic yeast system, TIR1-dependent degradation of YFP-IAA7 and YFP-IAA17 by flow cytometry; format: cell-based
T1 construct: with IAA7
T1 sequence (Q570C0 1-594): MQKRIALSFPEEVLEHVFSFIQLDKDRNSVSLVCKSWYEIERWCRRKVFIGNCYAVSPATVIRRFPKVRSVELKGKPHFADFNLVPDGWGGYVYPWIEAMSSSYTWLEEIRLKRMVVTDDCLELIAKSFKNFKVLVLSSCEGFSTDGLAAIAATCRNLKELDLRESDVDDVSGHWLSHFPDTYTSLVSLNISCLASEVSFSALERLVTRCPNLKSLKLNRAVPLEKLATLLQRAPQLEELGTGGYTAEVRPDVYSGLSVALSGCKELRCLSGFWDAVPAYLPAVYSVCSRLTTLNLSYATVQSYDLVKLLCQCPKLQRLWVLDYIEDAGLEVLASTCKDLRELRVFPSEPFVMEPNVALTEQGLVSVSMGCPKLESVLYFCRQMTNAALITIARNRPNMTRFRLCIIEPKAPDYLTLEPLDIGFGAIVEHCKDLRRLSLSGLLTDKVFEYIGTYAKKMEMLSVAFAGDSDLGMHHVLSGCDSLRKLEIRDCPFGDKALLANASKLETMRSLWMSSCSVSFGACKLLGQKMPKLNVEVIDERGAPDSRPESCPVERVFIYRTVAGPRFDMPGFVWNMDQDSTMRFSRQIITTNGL
T1 sequence (Q38825 1-243 partner): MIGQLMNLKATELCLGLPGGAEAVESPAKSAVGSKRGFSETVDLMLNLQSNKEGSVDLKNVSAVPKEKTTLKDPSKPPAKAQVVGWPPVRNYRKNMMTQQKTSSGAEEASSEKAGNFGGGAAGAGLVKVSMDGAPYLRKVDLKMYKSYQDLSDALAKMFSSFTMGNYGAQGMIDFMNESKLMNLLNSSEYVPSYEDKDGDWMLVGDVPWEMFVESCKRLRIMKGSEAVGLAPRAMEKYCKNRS

[1] = biological target: TIR1 (Arabidopsis thaliana) (UniProt Q570C0); test: BLI; conditions: cited from earlier work
[2] = biological target: TIR1 (Arabidopsis thaliana) (UniProt Q570C0); test: BLI; conditions: cited from earlier work; remark: listed apart in the source
IAA7 = biological target: T2, IAA7 (Arabidopsis thaliana, UniProt Q38825); test: BLI
T2 chain: T1 sequence (Q38825 1-243 partner)

Molecule: O=C(O)Cc1c[nH]c2ccccc12 [IAA, indole-3-acetic acid]
synthetic yeast system, TIR1-dependent degradation of YFP-IAA7 and YFP-IAA17 by (TIR1): signals from YFP-IAA7 and YFP-IAA17 decreased rapidly upon addition of IAA

Molecule: IAA7 (from UniProt Q38825)
Kd [1]: 20000 nM | Kd [2]: 30 nM

Kd (IAA7): 200 nM
B1: TIR1 (protein)
chain: T1 sequence (Q570C0 1-594)
modifications: oxIAA (saturating)
